Measured values reported in US20140248666A1 (Amgen, published 2014).
Each block holds one binder with its values, some of them ahead of it.

Legend:
[1] = target: T1, human sclerostin tryptic peptide T19.2 (Interchain disulfide C2-C6 (Cys71-Cys125 of SEQ ID NO:1): chain 1 pos 7 to chain 2 pos 5.); assay: Biacore human sclerostin peptide epitope competition binding assay: 2 nM Mab preincubated with 20 nM peptide in solution, then injected over immobilised human sclerostin; unchanged Ru signal means the Mab did not bind the peptide
T1 construct: Two peptides linked by the C2-C6 disulfide bond
T1 peptide 1: YVTDGPCR
T1 peptide 2: VQLLCPGGEAPR
Procedure: (§1) Immobilization of mature form human sclerostin to a BIAcore sensor chip (CM5) surface was performed according to manufacturer's instructions. Briefly, carboxyl groups on the sensor chip surfaces were activated by injecting 60 μL of a mixture containing 0.2 M N-ethyl-N′-(dimethylaminopropyl) carbodiimide (EDC) and 0.05 M N-hydroxysuccinimide (NHS). Human sclerostin was diluted in 10 mM sodium acetate, pH 4.0 at a concentration of 20 μg/mL followed by injecting over the activated CM5 surface. Excess reactive groups on the surfaces were deactivated by injecting 60 μL of 1M ethanolamine. Final immobilized levels were ˜5000 resonance units (RU) for the human sclerostin surface. A blank, mock-coupled reference surface was also prepared on the sensor chips.

[2] = target: T2, human sclerostin AspN peptide AspN18.6 (FIG. 12 labels it '(Glycopeptide)'. The glycan site is not stated. The only N-X-T sequon is NKT, so the glycosylated residue is probably Asn at chain 1 pos 22, written N.); assay: as above
T2 peptide: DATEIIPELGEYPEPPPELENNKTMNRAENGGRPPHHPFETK
Procedure: as §1

[3] = target: T3, human sclerostin tryptic peptide T20.6 (human); assay: as above
T3 chain 1: DVSEYSCRELHFTR
T3 chain 2: SAKPVTELVCSGQCGPAR
T3 chain 3: WWRPSGPDFRCIPDRYR
T3 chain 4: LVASCKCKRLTR
Procedure: as §1

[4] = target: T4, human sclerostin, mature form (signal peptide removed) (human, UniProt Q9BQB4 24-213); assay: Biacore human sclerostin peptide epitope competition binding assay: 2 nM Mab injected over human sclerostin immobilised on a CM5 chip, alone or after preincubation with 20 nM soluble human sclerostin
T4 construct: 190 amino acid glycoprotein with four disulfide bonds (C1-C5, C2-C6, C3-C7, C4-C8); also called SOST; recombinant human sclerostin
T4 sequence: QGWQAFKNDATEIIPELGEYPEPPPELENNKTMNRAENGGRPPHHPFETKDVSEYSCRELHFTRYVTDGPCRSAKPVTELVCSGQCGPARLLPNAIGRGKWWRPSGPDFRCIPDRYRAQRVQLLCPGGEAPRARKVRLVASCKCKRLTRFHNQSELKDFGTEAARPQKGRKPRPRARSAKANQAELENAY
Procedure: as §1

[5] = target: T3, human sclerostin tryptic peptide T20.6; assay: Biacore human sclerostin peptide epitope competition binding assay: 2 nM Mab preincubated with 20 nM peptide in solution, then injected over immobilised human sclerostin; loss of Ru signal means the Mab bound the peptide
Procedure: as §1

[6] = target: T4, human sclerostin, mature form (signal …); assay: Biacore cross-blocking, human sclerostin on CM5 chip; mixed with competitor Ab-13, each 1.3 uM binding sites
Procedure: (§2) Human sclerostin was coupled to a CM5 Biacore chip using standard amine coupling chemistry to generate a sclerostin coated surface. 300 resonance units of sclerostin were coupled to the surface.
(§3) The antibodies to be tested were diluted to a concentration of 200 ug/ml in HBS-EP buffer (being 10 mM HEPES pH 7.4, 150 mM NaCl, 3 mM EDTA, 0.005% (v/v) Surfactant P20) and then mixed in a one to one molar ratio (on a binding site basis) to generate the test mixture. This test mixture thus contained each antibody at a concentration of 100 ug/ml (1.3 um on a binding site basis). Separate solutions containing each of the antibodies in the test mix alone were also prepared. These solutions contained the individual antibodies in HBS-EP buffer at a concentration of 100 ug/ml (1.3 um on a binding site basis).
(§4) 20 μL of the test mixture was passed over the sclerostin-coated chip at a flow rate of 10 μL/min and the amount of binding recorded. The chip was then treated with two 60 second pulses of 30 mM HCl to remove all of the bound antibody. A solution containing only one of the antibodies of the test mixture (at 1.3 μM in the same buffer as the test mixture on a binding site basis) was then passed over the chip in the same manner as the test mixture and the amount of binding recorded. The chip was again treated to remove all of the bound antibody and finally a solution containing the other antibody from the test mixture alone (at 1.3 μM in the same buffer as the test mixture on a binding site basis) was passed over the chip and the amount of binding recorded.

[7] = target: T4, human sclerostin, mature form (signal …); assay: Biacore cross-blocking, human sclerostin on CM5 chip; mixed with competitor Ab-3, each 1.3 uM binding sites
Procedure: as §2, §4
(§5) The table below show the results from cross-blocking assays on a range of different antibodies. The values in each square of the table represent the amount of binding (in RU) seen when the antibodies (at 1.3 μM on a binding site basis) or buffer indicated in the top row of the table were mixed with the antibodies (at 1.3 uM on a binding site basis) or buffer indicated in the first column of the table.

[8] = target: T4, human sclerostin, mature form (signal …); assay: Biacore cross-blocking, human sclerostin on CM5 chip; mixed with competitor Ab-4, each 1.3 uM binding sites
Procedure: as §2, §4, §5

[9] = target: T4, human sclerostin, mature form (signal …); assay: Biacore cross-blocking on human sclerostin; mixture with competitor Ab-3, mean RU against the sum of each alone
Procedure: as §2, §3, §4

[10] = target: T4, human sclerostin, mature form (signal …); assay: Biacore cross-blocking on human sclerostin; mixture with competitor Ab-19, mean RU against the sum of each alone
Procedure: as §2, §3, §4

[11] = target: T4, human sclerostin, mature form (signal …); assay: Biacore cross-blocking, human sclerostin on CM5 chip; mixed with competitor Ab-19, each 1.3 uM binding sites
Procedure: as §2, §3, §4

binding result [1]: no binding (tested: 20 nM) | binding result [2]: no binding (tested: 20 nM) | binding result [3]: no binding (tested: 20 nM) | binding result [4]: binds
B1: Antibody B (antibody, mouse IgG1, kappa, V domains shown)
VH: QVTLKESGPGILQPSQTLSLTCSFSGFSLSTSGMGVGWIRHPSGKNLEWLAHIWWDDVKRYNPVLKSRLTISKDTSNSQVFLKIANVDTADTATYYCARIEDFDYDEEYYAMDYWGQGTSVIVSS
VL: QIVLTQSPTIVSASPGEKVTLICSASSSVSFVDWFQQKPGTSPKRWIYRTSNLGFGVPARFSGGGSGTSHSLTISRMEAEDAATYYCQQRSTYPPTFGAGTKLELKR
notes: Mouse antibody; mature chains; also called Ab-B; Mab-B

binding result [5]: binds | binding result [1]: no binding (tested: 20 nM) | binding result [2]: no binding (tested: 20 nM) | binding result [4]: binds
B3: Antibody D (antibody, mouse IgG1, kappa, V domains shown)
VH: EVQLQQSGPELVTPGASVKISCKASGYTFTDHYMSWVKQSHGKSLEWIGDINPYSGETTYNQKFKGTATLTVDKSSSIAYMEIRGLTSEDSAVYYCARDDYDASPFAYWGQGTLVTVSA
VL: DVQMIQSPSSLSASLGDIVTMTCQASQGTSINLNWFQQKPGKAPKLLIYGSSNLEDGVPSRFSGSRYGTDFTLTISSLEDEDLATYFCLQHSYLPYTFGGGTKLEIKR
notes: Mouse antibody; mature chains; also called Ab-D; Mab-D

The remaining lines, values behind:

B2: Antibody C (antibody, mouse IgG1, kappa, V domains shown)
VH: EVQLQQSGPELVKPGTSVKMSCKASGYTFTDCYMNWVKQSHGKSLEWIGDINPFNGGTTYNQKFKGKATLTVDKSSSTAYMQLNSLTSDDSAVYYCARSHYYFDGRVPWDAMDYWGQGTSVTVSS
VL: DIVLTQSPASLTVSLGLRATISCKASQSVDYDGDSYMNWYQQKPGQPPKLLIYAASNLESGIPARFSGNGSGTDFTLNIHPVEEEDAVTYYCQQSNEDPWTFGGGTKLEIKR
notes: Mouse antibody; mature chains; also called Ab-C; Mab-C
binding result [5]: binds | binding result [1]: no binding (tested: 20 nM) | binding result [2]: no binding (tested: 20 nM) | binding result [4]: binds

B4: Antibody A (antibody, mouse IgG1, kappa, V domains shown)
VH: QSLEESGGRLVTPGTPLTLTCTASGFSLSSYWMNWVRQAPGEGLEWIGTIDSGGRTDYASWAKGRFTISRTSTTMDLKMTSLTTGDTARYFCARNWNLWGQGTLVTVSS
VL: AQVLTQTPASVSAAVGGTVTINCQSSQSVYDNNWLAWFQQKPGQPPKLLIYDASDLASGVPSRFSGSGSGTQFTLTISGVQCADAATYYCQGAYNDVIYAFGGGTEVVVKR
notes: Rabbit-mouse chimeric antibody; mature chains (signal peptides cleaved off); also called Ab-A; Mab-A
amount of binding (RU) [6]: 1080 RU | amount of binding (RU) [7]: 946 RU | binding result [1]: no binding (tested: 20 nM) | binding result [2]: no binding (tested: 20 nM) | binding result [3]: no binding (tested: 20 nM) | amount of binding (RU) [8]: 833 RU | percentage of the theoretical binding [9]: 93.5% | percentage of the theoretical binding [10]: 65% | amount of binding (RU) [11]: 868 RU
